Assay results published in PMC3655812 (Molecular Biology of the Cell, 2013).
Positions count from the first letter of the chain named. Numbers in names are those of the source.

B1: MBP-Mgm101 (wild-type fusion of maltose-binding protein with Mgm101 lacking the mitochondrial targeting signal) (natural protein, yeast, UniProt P32787 23-269, looked up)
chain: VVSTGTSNTATAGAVRKSFNSTETKPVFATKSEAGNGSHMKEYSSGINSKLGGTPLETRSTADDSLNNSYKQVKGDIDWYTSWYGLGMKPFEAKVQKDLIEPLDPKDIEIKPDGLIYLPEIKYRRILNKAFGAGGWGLVPRSQTIVTSKLVTREYGLICHGQLISVARGEQDYFNEAGIPTATEGCKSNALMRCCKDLGVGSELWDPVFIKKFKVDHCTEKFVEHVTTKRKKKIWLRKDRQVEYPYK
B2: MBP-Mgm101^W257A (natural protein, yeast, UniProt P32787 23-269, looked up)
chain: B1 chain with W235A
B3: Mgm101^Y139A (tag-free) (natural protein, yeast, UniProt P32787 23-269, looked up)
chain: B1 chain with Y117A
B4: MBP-Mgm101^Y268A (natural protein, yeast, UniProt P32787 23-269, looked up)
chain: B1 chain with Y246A
B5: Mgm101^K253A (tag-free) (natural protein, yeast, UniProt P32787 23-269, looked up)
chain: B1 chain with K231A
B6: MBP-Mgm101^K253A (natural protein, yeast, UniProt P32787 23-269, looked up)
chain: B1 chain with K231A
B7: Mgm101^(K251-K253)A (tag-free) (natural protein, yeast, UniProt P32787 23-269, looked up)
chain: B1 chain with K229A, R230A, K231A
B8: MBP-Mgm101^(K251-K253)A (natural protein, yeast, UniProt P32787 23-269, looked up)
chain: B1 chain with K229A, R230A, K231A

Biological target: the molecule itself
Assay: SEC

Binding result, binds:
B1, B2, B3, B4, B5, B6, B7, B8
